Results published in article PMC11189300.

B1: Mis12 complex full length: MIS12, PMF1, NSL1, DSN1 mutant PMF1:R195A; PMF1:V198L; DSN1:L290F [human] / KNL1 residues 2,026–2,342 [human] (parent)
chain 1: SAQNEREKLQIKIDEMDKILKKIDNCLTEMETETKNLEDEEKNNPVEEWDSEMRAAEKELEQLKTEEEELQRNLLELEVQKEQTLAQIDFMQKQRNRTEELLDQLSLSEWDVVEWSDDQAVFTFVYDTIQLTITFEESVVGFPFLDKRYRKIVDVNFQSLLDEDQAPPSSLLVHKLIFQYVEEKESWKKTCTTQHQLPKMLEEFSLVVHHCRLLGEEIEYLKRWGPNYNLMNIDINNNELRLLFSSSAAFAKFEITLFLSAYYPSVPLPSTIQNHVGNTSQDDIATILSKVPLENNYLKNVVKQIYQDLFQDCHFYH
chain 2: MSVDPMTYEAQFFGFTPQTCMLRIYIAFQDYLFEVMQAVEQVILKKLDGIPDCDISPVQIRKCTEKFLCFMKGHFDNLFSKMEQLFLQLILRIPSNILLPEDKCKETPYSEEDFQHLQKEIEQLQEKYKTELCTKQALLAELEEQKIVQAKLKQTLTFFDELHNVGRDHGTSDFRESLVSLVQNSRKLQNIRDNVEKESKRLKIS
chain 3: MAEASSANLGSGCEEKRHEGSSSESVPPGTTISRVKLLDTMVDTFLQKLVAAGSYQRFTDCYKCFYQLQPAMTQQIYDKFIAQLQTSIREEISDIKEEGNLEAVLNALDKIVEEGKVRKEPAWRPSGIPEKDLHSVMAPYFLQQRDTLRRHVQKQEAENQQLADAVLAGRRQVEELQLQVQAQQQAWQALHREQRELVAVLREPE
chain 4: MAGSPELVVLDPPWDKELAAGTESQALVSATPREDFRVRCTSKRAVTEMLQLCGRFVQKLGDALPEEIREPALRDAQWTFESAVQENISINGQAWQEASDNCFMDSDIKVLEDQFDEIIVDIATKRKQYPRKILECVIKTIKAKQEILKQYHPVVHPLDLKYDPDPAPHMENLKCRGETVAKEISEAMKSLPALIEQGEGFSQVLRMQPVIHLQRIHQEVFSSCHRKPDAKPENFITQIETTPTETASRKTSDMVLKRKQTKDCPQRKWYPLRPKKINLDT
chain 5: MTSVTRSEIIDEKGPVMSKTHDHQLESSLSPVEVFAKTSASLEMNQGVSEERIHLGSSPKKGGNCDLSHQERLQSKSLHLSPQEQSASYQDRRQSWRRASMKETNRRKSLHPIHQGITELSRSISVDLAESKRLGCLLLSSFQFSIQKLEPFLRDTKGFSLESFRAKASSLSEELKHFADGLETDGTLQKCFEDSNGKASDFSLEASVAEMKEYITKFSLERQTWDQLLLHYQQEAKEILSRGSTEAKITEVKVEPMTYLGSSQNEVLNTKPDYQKILQNQSKVFDCMELVMDELQGSVKQLQAFMDESTQCFQKVSVQLGKRSMQQLDPSPARKLLKLQLQNPPAIHGSGSGSCQ

Variants of: B1
Assay: ITC
Settings: with KNL1 residues 2,026–2,342 [human]; syringe KNL1^WT; cell Mis12C^M1

| Variant | screen value |
| --- | --- |
| chain 3 R195A V198L, chain 5 L290F | 5.83 |

Same assay, conditions: with Mis12 complex (Mis12C), syringe KNL1^M1, cell Mis12C^WT

| Variant | screen value |
| --- | --- |
| chain 1 M231A S247W F250A K252A | 1.2 |

Same assay, conditions: with Mis12 complex (Mis12C), syringe KNL1^M1, cell Mis12C^WT, parent: -12

| Variant | dG |
| --- | --- |
| chain 1 M231A S247W F250A K252A | -9.35 |

Same assay, conditions: with Mis12 complex (Mis12C), syringe KNL1^M2, cell Mis12C^WT

| Variant | screen value |
| --- | --- |
| chain 1 M231A S247W F250A K252E | -16.1 |

Same assay, conditions: with Mis12 complex (Mis12C), syringe KNL1^M2, cell Mis12C^WT, parent: -12

| Variant | dG |
| --- | --- |
| chain 1 M231A S247W F250A K252E | -9.5 |

Same assay, conditions: with KNL1 residues 2,026–2,342 [human]; syringe KNL1^WT; cell Mis12C^M2

| Variant | screen value |
| --- | --- |
| chain 3 R195E V198L, chain 5 L290F | -14.3 |

Same assay, conditions: with KNL1 residues 2,026–2,342 [human]; syringe KNL1^WT; cell Mis12C^M2; parent: -12

| Variant | dG |
| --- | --- |
| chain 3 R195E V198L, chain 5 L290F | -10.4 |
